For experiment [1], the target named is AAV-amyloid-453-587 (AAV2; human) (UniProt P03135).
Experiment [2] deals with T1, purified αvβ3 integrin (CHEMICON) (UniProt P06756 31-1048; P05106 27-788).
T1 construct: also called soluble αvβ3; soluble receptor αvβ3
The experiment in a line: A20-capture ELISA, purified αvβ3 integrin 100 ng/well, normalised to A20-biot.

T1 sequence (P06756 31-1048, chain 1 of 2): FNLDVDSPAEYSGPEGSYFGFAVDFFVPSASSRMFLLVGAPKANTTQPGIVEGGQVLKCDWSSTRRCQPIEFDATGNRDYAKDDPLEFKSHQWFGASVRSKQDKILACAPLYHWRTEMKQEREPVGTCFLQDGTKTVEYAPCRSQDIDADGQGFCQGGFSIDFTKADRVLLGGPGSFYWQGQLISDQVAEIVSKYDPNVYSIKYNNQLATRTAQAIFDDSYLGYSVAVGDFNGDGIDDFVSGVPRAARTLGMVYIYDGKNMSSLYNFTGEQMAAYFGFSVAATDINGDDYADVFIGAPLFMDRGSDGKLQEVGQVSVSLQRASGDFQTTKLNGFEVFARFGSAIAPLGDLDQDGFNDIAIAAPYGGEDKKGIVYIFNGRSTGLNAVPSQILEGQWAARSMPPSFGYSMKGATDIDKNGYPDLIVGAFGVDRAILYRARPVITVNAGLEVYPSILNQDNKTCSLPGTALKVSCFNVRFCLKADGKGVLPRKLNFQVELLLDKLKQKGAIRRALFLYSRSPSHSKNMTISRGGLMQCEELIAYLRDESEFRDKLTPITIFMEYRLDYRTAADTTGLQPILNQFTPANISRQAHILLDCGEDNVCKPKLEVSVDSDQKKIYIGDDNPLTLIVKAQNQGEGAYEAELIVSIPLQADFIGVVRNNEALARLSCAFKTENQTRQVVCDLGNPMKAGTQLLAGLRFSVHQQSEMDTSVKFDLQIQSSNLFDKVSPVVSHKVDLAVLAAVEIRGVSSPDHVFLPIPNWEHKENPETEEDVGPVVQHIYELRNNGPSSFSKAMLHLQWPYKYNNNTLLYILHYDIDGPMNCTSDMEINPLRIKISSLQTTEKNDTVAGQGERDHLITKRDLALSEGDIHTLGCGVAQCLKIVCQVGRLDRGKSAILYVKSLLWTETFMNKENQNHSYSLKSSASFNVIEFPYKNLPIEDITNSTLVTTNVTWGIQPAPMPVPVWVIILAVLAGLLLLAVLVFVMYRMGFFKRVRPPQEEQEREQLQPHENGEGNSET
T1 sequence (P05106 27-788, chain 2 of 2): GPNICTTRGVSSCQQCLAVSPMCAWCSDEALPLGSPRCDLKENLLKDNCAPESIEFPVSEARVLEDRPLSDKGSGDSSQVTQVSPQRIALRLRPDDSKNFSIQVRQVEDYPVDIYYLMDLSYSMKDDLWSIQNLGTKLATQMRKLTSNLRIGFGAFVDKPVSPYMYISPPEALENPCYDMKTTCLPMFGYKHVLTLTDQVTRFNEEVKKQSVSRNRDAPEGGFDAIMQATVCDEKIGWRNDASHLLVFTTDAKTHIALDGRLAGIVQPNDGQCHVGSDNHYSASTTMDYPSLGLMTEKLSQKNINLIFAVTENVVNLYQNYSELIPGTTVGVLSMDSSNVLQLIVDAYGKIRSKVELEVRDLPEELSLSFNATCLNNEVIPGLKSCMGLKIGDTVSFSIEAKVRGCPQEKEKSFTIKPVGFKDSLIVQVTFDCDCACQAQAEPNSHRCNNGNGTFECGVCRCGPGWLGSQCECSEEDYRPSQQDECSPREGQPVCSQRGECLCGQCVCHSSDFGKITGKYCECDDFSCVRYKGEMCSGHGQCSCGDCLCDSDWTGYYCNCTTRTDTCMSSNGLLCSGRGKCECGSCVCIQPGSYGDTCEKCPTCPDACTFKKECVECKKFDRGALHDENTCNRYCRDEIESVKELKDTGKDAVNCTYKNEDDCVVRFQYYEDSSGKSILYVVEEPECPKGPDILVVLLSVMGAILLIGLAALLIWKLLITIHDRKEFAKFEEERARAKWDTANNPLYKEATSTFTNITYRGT

“anti-β-amyloid mAb 6E10 (CHEMICON) (antibody)” had a fold higher affinity against the I-587-insertion mutant in experiment [1] of 2 fold.

B1: AAV2 RGD4C 453 A2 (other)
chain: MAADGYLPDWLEDTLSEGIRQWWKLKPGPPPPKPAERHKDDSRGLVLPGYKYLGPFNGLDKGEPVNEADAAALEHDKAYDRQLDSGDNPYLKYNHADAEFQERLKEDTSFGGNLGRAVFQAKKRVLEPLGLVEEPVKTAPGKKRPVEHSPVEPDSSSGTGKAGQQPARKRLNFGQTGDADSVPDPQPLGQPPAAPSGLGTNTMATGSGAPMADNNEGADGVGNSSGNWHCDSTWMGDRVITTSTRTWALPTYNNHLYKQISSQSGASNDNHYFGYSTPWGYFDFNRFHCHFSPRDWQRLINNNWGFRPKRLNFKLFNIQVKEVTQNDGTTTIANNLTSTVQVFTDSEYQLPYVLGSAHQGCLPPFPADVFMVPQYGYLTLNNGSQAVGRSSFYCLEYFPSQMLRTGNNFTFSYTFEDVPFHSSYAHSQSLDRLMNPLIDQYLYYLSRTNTPSGACDCRGDCFCATTTQSRLQFSQAGASDIRDQSRNWLPGPCYRQQRVSKTSADNNNSEYSWTGATKYHLNGRDSLVNPGPAMASHKDDEEKFFPQSGVLIFGKQGSEKTNVDIEKVMITDEEEIRTTNPVATEQYGSVSTNLQAGNAQAATADVNTQGVLPGMVWQDRDVYLQGPIWAKIPHTDGHFHPSPLMGGFGLKHPPPQILIKNTPVPANPSTTFSAAKFASFITQYSTGQVSVEIEWELQKENSKRWNPEIQYTSNYNKSVNVDFTVDTNGVYSEPRPIGTRYLTRNL
notes: Capsid particle of VP-1, VP-2 and VP-3; substitution positions count on wild-type AAV2 VP-1
In the case of B1, the “fold increase of binding activity against RGD4C 453” value in experiment [2] was around 50 fold.

These data come from patent US20130108658A1 (published 2013).
